In the nanobody polyreactivity screen of Harvey et al. (2022):

Assay: yeast display, Sf9 membrane polyspecificity reagent, FACS + sequencing; frameworks hold sequencing errors
Procedure, shortened: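 In a synthetic yeast display library (Saccharomyces cerevisiae BJ5465), nanobody expression was induced with galactose for 36–48 hours. FACS gates were set low and high (top ~1%) using anti-HA fluorescence for expression and streptavidin fluorescence for binding of the Sf9 membrane reagent. Each polyreactivity label is drawn from the gate of origin.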

Row | Sequence | polyreactivity (PSR sort gate)
1 | QVQLAESGGGFVQAGGTLRLTCAASGSIFTSNAMGWFRQAPGKERELVAPSSWRGTSTYYADSVKGRYTISRDNAKTTVYLQMNSLKPVDTAVYYCAKYRRFRPYGSNGIYDYWGQGTQVTVSS | high polyreactivity
2 | QVQLAESGGGLVQAGGSLRLICAASGFTFSAYAMGWYRQAPGKERELVAAINTSGGSTYYADSVKGRFTISRDNAKNTVYLQMKSLKPEDTAVYYCASKYASLDRRRRKYDYWGQGTQVTVSS | high polyreactivity
3 | QVQLAESGGGLVQAGGSLRLSCAASGFILHHYTMGWYRQAPGKERELVAAISRSGGSTYYADSVKGRFTISRDNAKNTVYLQMNSLKPEDTAVYYCAKRVSTYGFSGYDYWGQGSQVTVSS | high polyreactivity
4 | QVQLAESGGGLVQAGGSLRLSCAASGRIFYGYTMGWYRQAPGKERELVAAITWSGGSTYYADSVKGRFTISRDNAKNTVYLQMNSLKPKDTAVYYCAATLGNAADYDYGYWGQGTQVTVSS | high polyreactivity
5 | QVQLDESGGGLVQAGGSLRLSCAASGHIFFYYTMGWSRQAPRKEREFVAGITIGGSTNYADSVKGRFTISRDNAKYTVYLQKNSLKPEDTAVYYCNVVTYVYIYSYWEYYYWGQGTQVTVSS | low polyreactivity
6 | QVQLDESGGGLVQAGGSLRLSCAASGSTFNIYAMGWYRRAPWQERELVAAITRGGSTNYADSVKGRFTISRDNAKNTVYLQMNSLKPEDTAVYYCAARTAYFTSYGRYYYWGQGTQVTVSS | high polyreactivity
7 | QVQLEDSGGGLVQAGGSLRLSCAASGFTFGVYAMGWYRQAPGKQRELVAAITSGGGRTYADSVKWRFTISRDNAKNTVYLQMNSLKPEDTAVYYCAAEGVPLRVVWDYSYWDYDYDYWGQGTQVTVSS | low polyreactivity
8 | QVQLEDSGGGLVQAGGSLRLSCAASGRIFTRYAMGWYRQAPGKERELVAVITRSGGSTYYADSVKGRFTISRDNAKNTVYLQMNSLKPEDTAVYYCAARYYWSVYADQGDYWGQGTQVTVSS | low polyreactivity
9 | QVQLEDSGGGLVQAGGSLRLSCAASGSTISYYTMGWYRQAPGKERELVAAISSGGSTYADSVKGRFTISRDNAKNTVYLQMNSLKPDDTAVYYCAVDGFDYGPSQALDYWGPGTQVTVSS | low polyreactivity
10 | QVQLEESAGGLVQAGGSLRLSCAASGSIFAYYAMGWYRQAPGKERELVAVIRSGGSTYYADSVKGRFTISRDNAKNTVYFQMNSLKPEDTAVYYCAARSYRPTRGDYWGQGTQVTVSS | high polyreactivity
11 | QVQLEESCGGLVQAGGSLRLSCAAYGRIFGNYAMGWYRQATGKETELVAAITRGSTYYADSVKGRFTISRDNSKNTVYLQMNSLKPEDTAFYYCNARPRVPGVLYLYDYWGQGTQVTVSS | high polyreactivity
12 | QVQLEESGAGLVQAGGSLRLCCAASGFTIGYNVMGWYRQAPGKERELVATISWNGARTYYADSVKGRFTISRDNAKNTVYLQMNSLKPEDTAVYYCAARRYYRGEYDYWGQGTKVTVSS | low polyreactivity
13 | QVQLEESGGALVQAGGSLRLSCAASGFTFYRNALGWNRQAPGQERELVGAITRGGSTTYADSVKGRFTISRDNAKNTVYLQMNRMKPEDTAVYYCAAPKYIWYRDLNYWGQGTQVTVSS | high polyreactivity
14 | QVQLEESGGCLVQAGGSLRLSCAASGFTIRDYTMGWSRQAPGKERELVAPISRSGGSTYYADSVKGRFTISRDNATNTVYLQMYSLKPEDTAVYYFAALWHAVFYADYDYWGQGTQVSVSS | high polyreactivity
15 | QVQLEESGGCLVQAGGSLRLSCAASGITFVLYAMGWYRQAPGTERELVAAINIDGNTNYADSVKGRFTISRDNAKNTVYLQMNSLKPEDTAVYYCAATFVPAQSRYTCSKYDYWGQGTQVTVSS | low polyreactivity
16 | QVQLEESGGCLVQAGGSLRLSCAASGITFYVYAMGWSRQAPGKERELVAAISSSGGSTYYADSVTGRFTISRDNAKNTGALQMNSLKPEDTAVYYCPADKCFYYGRKYGKYDYWGQGTQVTVSS | high polyreactivity
17 | QVQLEESGGGIVQAGGSLRLSCAASGITFRFYAMGWYRPAPGKERELVAAITRSGSSTYYADSVKGRFTISRDNAKNTVYLQMNSLKPEDTAVYYCATDPYWNRPYVKYDYWGQGTLVTVSS | high polyreactivity
18 | QVQLEESGGGIVQAGGSLRLSCAASGRIFGYYAMGWYRQAPGKERELVASIRRGTRTNYADSVKGRFTISRDNAKNTVYLQMNSLKPEDTAVYYCAATRFQFTTTPWYDYWGQGTQVTVSS | high polyreactivity
19 | QVQLEESGGGIVQAGGSLRLSCAASGRTFYGYAMGWYRQAPGKEREFVAAINERGTSTYYADSVKGRFTISRDNAKNTVYLQMNSLKPEDTAVYYCAARYLRTQYQDGTRSRIQLDYWGQGTQVTVSS | high polyreactivity
20 | QVQLEESGGGIVQAGGSLRLSCAASGSIFGGYAMGWYRQAPGKEREFFAAISWTSGRTTYADSVKGRFTISRDYAKNTVYLQMNSLKPEDTAVYNCAKRYGIWYPSYADRGSDYRYGYWGQGTQVTVSS | high polyreactivity
21 | QVQLEESGGGIVQAGGSLRLSSAASGRIYTPNAMGSYRQAPGKERELVAAITWSGGSTYYADSVKGRFTISRDNAKNTVYLQMNRLKPEDTAVYYCAVRYSRNLMYYWGQATQVTVSS | high polyreactivity
22 | QVQLEESGGGIVQAGRSLRLSCAASGITFDANTMGWYRQAPGKERELVAAITGGGSTNYADSVKGRFTISRDNAKNTVYLHMNSPKPEDTAVYYCPADLIYKYNYWGQGTQVTVSS | low polyreactivity

Row | Sequence | polyreactivity (PSR sort gate)
23 | QVQLEESGGGLDQAGGSLRLSCAASGIIFGYYAMGWYIQAPGKQSEFVAAINYSGVSTYYADSVKGRFTISLDNAKNTVYLEMHSLKPEDTAVYYCAAGPYAGVDPGYYYYWGKGTQVTVSS | low polyreactivity
24 | QVQLEESGGGLDQAGGSLRLSCAASGSTYAYAMGWYRQAPRKERELVAAITRSGGSTYYADSVKGRFTISRDNAKNTVYLQMNSLKPEDTAVYYCRGKSTTWRGSQMDYWGQGTQVTVSS | high polyreactivity
25 | QVQLEESGGGLDQAGVSLRLSCAASGRTFPSNTMGWYRQAPGKERELVAAISWRGGSTYYADSVKGRFTITRDNAKKTVYLQMNSLKPEDTAVYYCNTLTKAYRSKSYYEWGHGTQVTVSS | high polyreactivity
26 | QVQLEESGGGLFQAGGSLRLSCAASGRIFYGYAMGWSRQAPGKEMELVAAISSSGGSTYYADSVKGRFTISRDNAKNTVYLQRNSLKPEDTAVYYCNAKRYRPGYWYDYWGQGTQVTVSS | high polyreactivity
27 | QVQLEESGGGLFQAGGSLRLSCAASGSTIFSNAMGWYRQAPGKAREVVAAITSDGGTYYADSVKGRFTISRDNAKKTVYLQMNSLKPEDTAVYYCNVGSFTGHSYGFGYWGQGTQVTVSS | low polyreactivity
28 | QVQLEESGGGLVHAGGSLRLSCAASGSTFRPYAMGWYRQAPGKERELVAAIRKIGGRTYYADSVKGRFTISRDNAKNTVYLQMNSLKPEDTAVYYCNKRIGGGVHAYNYWGQGTQVTVSS | low polyreactivity
29 | QVQLEESGGGLVKEGGSLRLSCAASGSIFPINAMGWYRQAPGKERELVAAINGSGSTKYADSVKGRFTISRDNAKNTVYLQMNSLKPEDTAVYYCSTRGLRWAKYGYWGQVTQVTVSS | high polyreactivity
30 | QVQLEESGGGLVLAGGSLRLSCAAAGSTFVTNDMGWYRQAPGKERELGAAISVGGRTSYADSVKGRFTISRDNAKNTVYLQMNSLKPEESAVDYCAAQYSYTYWGQGTQVTVSS | low polyreactivity
31 | QVQLEESGGGLVQAGASLRLSCAASGFIFTSYAMGWYRQAPGKEREFVAASSRRGGSTYYADSVKGRFTISRDNAKNTVYLQMNILKPEYTAVYYCAADPKQHAGYEYWGQGTQVTVSS | high polyreactivity
32 | QVQLEESGGGLVQAGGRLRLSCAASGFIFWGNAMGWYRQAPGKERELVAGIRSLGGTTSYEDSVKGRFTISRDNAKNSVYLQINSLKPEDTAVYSCAAGYVAEFDYWGQVTQVTVSS | low polyreactivity
33 | QVQLEESGGGLVQAGGRLRLSCAASGIISAHYAMGWYRQAPGKERELVAAISSSGGSTYYADSVKGRFTISRDNAKNTVYLQMNSLKPEDTAVYYCNAEFYWGYDYWGQGTQVTVSS | low polyreactivity
34 | QVQLEESGGGLVQAGGSHRLSCAASGFIFDRNAMGWYRQAPGKERELVAAITRSGGNTYYADSVKGRFTISRDNAKNTVYLQMNSLKPEDTAVYYCAKDVIQWSVSASYRFGYWGQGTQVTVSS | high polyreactivity
35 | QVQLEESGGGLVQAGGSLPLSCAASGFIFGRYAMGWYRQAPGKEREFVASISWSGGSTYYADSVKGRFTISRDNAKNTVYLQMNSLKPEDTAVYYCAAYVRKDRSRGLYGYWGQGTQVTVSS | high polyreactivity
36 | QVQLEESGGGLVQAGGSLRFSCAASGITFDQNAMGWYRQAPGKEREFVAAISVSGGRTYYADSVKGPFTISRDNAKNSVYLQLNSLKPDDSAVYYCNADYAFYYPLEPLDVGYDYWGQGTQVTVSS | high polyreactivity
37 | QVQLEESGGGLVQAGGSLRFSCAASGSIFDYNAMGWYRQAPGTERELVAAITYSGGTTYADSVKGRFTISRDNAKNTVYLQMNSLKPEDTAVDYCAATSYDRFAYYYWGQGTQVTVSS | low polyreactivity
38 | QVQLEESGGGLVQAGGSLRFSCAASGSTFLHYAMGWYRPAPGQERALVAAITWSGGSTYYADSVKGRFTISRDNAKNTVSLQMNSLKPEDTAVYYCAADLTYLYDYHYDYWGQGTQVTVSS | low polyreactivity
39 | QVQLEESGGGLVQAGGSLRISCAASGRIFRKYTMGWYRQAPGKERELVAAITGTGGSTYYADSVKGRFTISRDNAKNTVYLQMNSLKPVVTAVYYCAADYSARYGYWGQGTQVTVSS | high polyreactivity
40 | QVQLEESGGGLVQAGGSLRISSAASGSTLGSNAMGWYRQAPGKEMELVAAITWSGGTTYYADSVKGRFTIARDNPKNTVSLQMNSLKPEDTAVYYCATGQSVIYRYEYWGQGTQVTVSS | low polyreactivity
41 | QVQLEESGGGLVQAGGSLRLICAASGGIFQKYAMGWYRQAPGKERELVASNNTGVRTYYADSVKGRFTISRDNAKNTVYLQMNSLKPEDTAVYYCNADGGGPRKYTRTRGHWGQGTQVTVSS | low polyreactivity
42 | QVQLEESGGGLVQAGGSLRLICAASGSIFDSNSMGWYRQAPGKVRELVAGISRGGGSTYYADSVKGRFTISRDNAKNTVYLQMNSLKPEDTAVYYCNVLTYRWLYARRYEYWGQGTQVTVSS | high polyreactivity
43 | QVQLEESGGGLVQAGGSLRLICAATGSIFSFYAMGWYRQAPGKEREWVAAIDVSGGSTYYADSVKGRFTISRDNAKNTVYLQMNSLKPEDTAVYYCAKDVRDQYDYWGQGTQVTVSS | low polyreactivity
